From the supplement of paper PMC9112550, “Optimization of the antimicrobial peptide Bac7 by deep mutational scanning” (BMC Biology, 2022)

Test system: Escherichia coli TOP10
Test: shrunken log2 fold change of peptide-encoding DNA abundance (4.5 h post-induction vs induction); higher = less antimicrobial activity (less host growth inhibition)
Details: time post-induction: 4.5 h; library: site-saturation at positions 5, 18, 19, 20
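Further: peptides expressed intracellularly from a pBAD plasmid library in pooled LB shake-flask culture, induced with 0.3% L-arabinose, DNA abundance read by NGS, three biological replicates, DESeq2 with apeglm shrinkage.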

Sequence	shrunken log2 fold change
RRIRYRPPRLPRPRPRPEMAPRP	-0.107
RRIRWRPPRLPRPRPRPQWMPRP	0.0674
RRIRERPPRLPRPRPRPNLIPRP	-0.421
RRIRTRPPRLPRPRPRPSFNPRP	-0.507
RRIRWRPPRLPRPRPRPPFAPRP	0.544
RRIRMRPPRLPRPRPRPSCSPRP	-0.0918
RRIRMRPPRLPRPRPRPYRIPRP	-0.0176
RRIRERPPRLPRPRPRPEKKPRP	-0.0578
RRIRPRPPRLPRPRPRPQTGPRP	0.142
RRIRHRPPRLPRPRPRPYEEPRP	-0.431
RRIRSRPPRLPRPRPRPFKMPRP	-0.357
RRIRARPPRLPRPRPRPNYNPRP	-0.556
RRIRHRPPRLPRPRPRPKDVPRP	0.0703
RRIRVRPPRLPRPRPRPTHLPRP	0.37
RRIRLRPPRLPRPRPRPITKPRP	0.00247
RRIRYRPPRLPRPRPRPPNYPRP	-0.523
RRIRLRPPRLPRPRPRPLITPRP	-0.238
RRIRWRPPRLPRPRPRPHYDPRP	-0.0735
RRIRCRPPRLPRPRPRPVGGPRP	0.273
RRIRCRPPRLPRPRPRPGPLPRP	0.213
RRIRERPPRLPRPRPRPANPPRP	-0.0315
RRIRDRPPRLPRPRPRPAIQPRP	0.389
RRIRLRPPRLPRPRPRPDGWPRP	0.257
RRIRSRPPRLPRPRPRPKHKPRP	-0.0831
RRIRPRPPRLPRPRPRPFARPRP	0.206

Sequence	shrunken log2 fold change
RRIRQRPPRLPRPRPRPKLEPRP	0.563
RRIRKRPPRLPRPRPRPVQNPRP	0.49
RRIRMRPPRLPRPRPRPITEPRP	-0.012
RRIRQRPPRLPRPRPRPFYLPRP	-0.437
RRIRVRPPRLPRPRPRPKEPPRP	0.0639
RRIRTRPPRLPRPRPRPFCWPRP	-0.0403
RRIRPRPPRLPRPRPRPHYCPRP	-0.997
RRIRIRPPRLPRPRPRPNFAPRP	0.0322
RRIRKRPPRLPRPRPRPLVYPRP	-0.23
RRIRPRPPRLPRPRPRPIEMPRP	0.00861
RRIRPRPPRLPRPRPRPHQKPRP	-0.0717
RRIRFRPPRLPRPRPRPFPGPRP	-0.00776
RRIRIRPPRLPRPRPRPHAKPRP	-0.348
RRIRTRPPRLPRPRPRPNPGPRP	-0.0312
RRIRPRPPRLPRPRPRPGKYPRP	-0.132
RRIRFRPPRLPRPRPRPCALPRP	-0.554
RRIRPRPPRLPRPRPRPSIAPRP	-0.131
RRIRRRPPRLPRPRPRPMVKPRP	0.0693
RRIRQRPPRLPRPRPRPERMPRP	0.0275
RRIRKRPPRLPRPRPRPYGWPRP	0.05
RRIRNRPPRLPRPRPRPKHQPRP	0.124
RRIRFRPPRLPRPRPRPKGNPRP	-0.047
RRIRDRPPRLPRPRPRPYTAPRP	0.0362
RRIRYRPPRLPRPRPRPQTMPRP	-0.23
RRIRVRPPRLPRPRPRPDAKPRP	0.0516

Sequence	shrunken log2 fold change
RRIRQRPPRLPRPRPRPLRVPRP	0.298
RRIRPRPPRLPRPRPRPCMNPRP	-0.184
RRIRYRPPRLPRPRPRPFFQPRP	-0.428
RRIRRRPPRLPRPRPRPYLSPRP	-0.288
RRIRPRPPRLPRPRPRPKHAPRP	0.824
RRIRTRPPRLPRPRPRPMEFPRP	-0.0956
RRIRFRPPRLPRPRPRPNAYPRP	-0.347
RRIRPRPPRLPRPRPRPPKQPRP	0.066
RRIRLRPPRLPRPRPRPCCDPRP	-0.139
RRIRPRPPRLPRPRPRPPVGPRP	0.557
RRIRPRPPRLPRPRPRPFKWPRP	0.0103
RRIRWRPPRLPRPRPRPWPIPRP	0.0793
RRIRLRPPRLPRPRPRPFGTPRP	-0.424
RRIRIRPPRLPRPRPRPWIQPRP	-0.318
RRIRTRPPRLPRPRPRPTYMPRP	-0.32
RRIRIRPPRLPRPRPRPMPEPRP	-0.11
RRIRFRPPRLPRPRPRPVAGPRP	0.128
RRIRCRPPRLPRPRPRPRPCPRP	0.339
RRIRNRPPRLPRPRPRPNYQPRP	-0.599
RRIRMRPPRLPRPRPRPLEPPRP	0.261
RRIRQRPPRLPRPRPRPDVQPRP	-0.0191
RRIRRRPPRLPRPRPRPTDFPRP	-0.00455
RRIRPRPPRLPRPRPRPFYWPRP	-0.107
RRIRCRPPRLPRPRPRPACQPRP	0.305
RRIRCRPPRLPRPRPRPHSMPRP	-0.718

Sequence	shrunken log2 fold change
RRIRHRPPRLPRPRPRPMFKPRP	-0.625
RRIRSRPPRLPRPRPRPNIMPRP	-0.49
RRIRIRPPRLPRPRPRPFWQPRP	-0.31
RRIRLRPPRLPRPRPRPVLMPRP	-0.04
RRIRCRPPRLPRPRPRPFLTPRP	-0.565
RRIRPRPPRLPRPRPRPQRIPRP	0.0114
RRIRARPPRLPRPRPRPVDNPRP	0.0773
RRIRLRPPRLPRPRPRPPNMPRP	-0.076
RRIRARPPRLPRPRPRPSPQPRP	0.554
RRIRWRPPRLPRPRPRPDLNPRP	0.392
RRIRERPPRLPRPRPRPFPMPRP	-0.423
RRIRHRPPRLPRPRPRPQQPPRP	0.176
RRIRVRPPRLPRPRPRPDIPPRP	-0.263
RRIRCRPPRLPRPRPRPCWGPRP	-0.195
RRIRERPPRLPRPRPRPNRLPRP	-0.0671
RRIRVRPPRLPRPRPRPQHVPRP	-0.0853
RRIRDRPPRLPRPRPRPILAPRP	0.115
RRIRSRPPRLPRPRPRPHYQPRP	-0.357
RRIRTRPPRLPRPRPRPARGPRP	0.407
RRIRYRPPRLPRPRPRPSYKPRP	-1.22
RRIRMRPPRLPRPRPRPRGNPRP	0.37
RRIRRRPPRLPRPRPRPMPGPRP	0.243
RRIRKRPPRLPRPRPRPHWIPRP	-0.0313
RRIRIRPPRLPRPRPRPEQGPRP	0.0755
RRIRTRPPRLPRPRPRPRMFPRP	-0.0163

Sequence	shrunken log2 fold change
RRIRGRPPRLPRPRPRPGNDPRP	0.381
RRIRSRPPRLPRPRPRPVKFPRP	0.0903
RRIRTRPPRLPRPRPRPASCPRP	0.066
RRIRWRPPRLPRPRPRPFKHPRP	-0.405
RRIRIRPPRLPRPRPRPLIMPRP	-0.853
RRIRGRPPRLPRPRPRPIAYPRP	0.117
RRIRHRPPRLPRPRPRPTMKPRP	-0.585
RRIRHRPPRLPRPRPRPCLHPRP	-0.0114
RRIRQRPPRLPRPRPRPSTQPRP	-0.481
RRIRLRPPRLPRPRPRPDMWPRP	-0.0873
RRIRQRPPRLPRPRPRPWARPRP	-0.0405
RRIRWRPPRLPRPRPRPHWKPRP	-0.018
RRIRVRPPRLPRPRPRPAACPRP	0.244
RRIRHRPPRLPRPRPRPFPLPRP	-0.0682
RRIRTRPPRLPRPRPRPKPPPRP	0.353
RRIRPRPPRLPRPRPRPHQTPRP	-0.0729
RRIRGRPPRLPRPRPRPAFSPRP	0.0169
RRIRVRPPRLPRPRPRPHVNPRP	-0.554
RRIRHRPPRLPRPRPRPDCYPRP	-0.0716
RRIRDRPPRLPRPRPRPVFTPRP	0.076
RRIRQRPPRLPRPRPRPGALPRP	0.0446
RRIRIRPPRLPRPRPRPEQHPRP	-0.0723
RRIRIRPPRLPRPRPRPGECPRP	-0.143
RRIRWRPPRLPRPRPRPELVPRP	0.605
RRIRHRPPRLPRPRPRPYGAPRP	-0.48

Sequence	shrunken log2 fold change
RRIRTRPPRLPRPRPRPCDQPRP	-0.252
RRIRLRPPRLPRPRPRPGHTPRP	0.183
RRIRHRPPRLPRPRPRPYKYPRP	-0.128
RRIRERPPRLPRPRPRPSKYPRP	-1.02
RRIRMRPPRLPRPRPRPNKMPRP	-0.134
RRIRWRPPRLPRPRPRPEEAPRP	0.113
RRIRCRPPRLPRPRPRPEWGPRP	0.163
RRIRGRPPRLPRPRPRPKTCPRP	0.206
RRIRKRPPRLPRPRPRPQNDPRP	-0.0578
RRIRKRPPRLPRPRPRPCSIPRP	0.11
RRIRVRPPRLPRPRPRPSEWPRP	-0.0811
RRIRVRPPRLPRPRPRPNHGPRP	-0.0115
RRIRFRPPRLPRPRPRPTNCPRP	0.0341
RRIRDRPPRLPRPRPRPVPEPRP	0.252
RRIRKRPPRLPRPRPRPIGIPRP	-0.01
RRIRSRPPRLPRPRPRPAIYPRP	-1.04
RRIRDRPPRLPRPRPRPTHMPRP	0.381
RRIRMRPPRLPRPRPRPPLWPRP	1.31
RRIRGRPPRLPRPRPRPPRDPRP	1.12
RRIRTRPPRLPRPRPRPGRTPRP	-0.0318
RRIRGRPPRLPRPRPRPSIRPRP	0.417
RRIRRRPPRLPRPRPRPAHVPRP	0.0907
RRIRNRPPRLPRPRPRPLYFPRP	-0.477
RRIRIRPPRLPRPRPRPYNVPRP	-0.291
RRIRNRPPRLPRPRPRPRDGPRP	0.292
